Laboratory results reported in the supplement of paper PMC9170038.

System: K4 kissing-loop RNA reporter
Test: apparent KD of K4 kissing-loop reporter; higher = weaker reporter binding
Conditions: Eterna round: R107
Method: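 RNA-MaP round R107: designed RNA switches with theophylline, tryptophan, arginine or FMN aptamers are transcribed on-chip within common flanks. They are titrated with a labelled K4 kissing-loop RNA reporter in RNA-MaP buffer (100 mM Tris pH 7.5, 80 mM KCl, 4 mM MgCl2), without ligand or with the indicated ligand. Median apparent KD per design.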

[1] = input ligand: theophylline 20 uM
[2] = input ligand: tryptophan 2.4 mM
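Further: bound reporter read as fluorescence of individual clusters on recovered sequencing chips by microscopy, with normalized cluster intensities fitted with a binding model.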

Sequence	apparent KD of K4 kissing-loop reporter (input ligand: FMN 200 uM) [nM]	apparent KD of K4 kissing-loop reporter (input ligand: arginine 13.2 mM) [nM]	apparent KD of K4 kissing-loop reporter (input ligand: none) [nM]	apparent KD of K4 kissing-loop reporter [1] [nM]	apparent KD of K4 kissing-loop reporter [2] [nM]
AACUCUCAGACACUUGAGUGAUGUUCGGGCCGAGGACCGGUACGGCCGCCACUCGGGUCUGAGAGAGGUUAUCAAAGAUAGCCAA [Omei KL Tryp A SS A v9]	303	87.3	153	141	164
AACUCUCAGACAUCUGAGUGAUGUUCAGGCCGAGGACCGGUACGGCCGCCACUCGGGUCUGAGAGAGGUUAUCAAAGAUAGCCAA [Omei KL Tryp A SS A v4]	570	356	468	390	540
AACUCUCAGAUACUUGAGUGAUGUUCAGGCCGAGGACCGGUACGGCCGCCACUCGGGUCUGAGAGAGGUUAUCAAAGAUAGCCAA [Omei KL Tryp A SS A v10]	266	197	257	329	236
AACUCUCAGGCACCUGAGUGAUGUUCAGGCCGAGGACCGGUACGGCCGCCACUCGGGCCUGAGAGAGGUUAUCAAAGAUAGCCAA [Omei KL Tryp A SS A v2]	561	366	528	277	449
AACUGUUGGGAAGGAUAUUAUGGUGGCUAAAUCCAGUGAUGUUGGAAAUCGGUACUCGCCCACCUUUAAGAAGGUCCGUGAAAGA [theeternabot_sameState_KL_FMN_B_6]	152	164	151	199	130
AAGAGUUGACGAAAAGUCAACUCACGAGAAGGAGCGCACGAAAGUGCAGGUAGGUCGCUCAGUCCAGUGAUGUUGGAACAUAAAA [#OpenEnded 7]	66.2	114	96.1	110	73.3
AAGCAGUCCCUUGUUGUCAUCGAAGAUGAACGAGGACCGGUACGGCCGCCACUCGGAGUGAUGUUCCGAUGGCUGCAAAAUAAAA [MatMod 21 - Jieux - Exclusion - Tryptophan A]	101	96.7	105	101	108
AAGCCAGUGAUGUUGGCAAAAUAAACUGAAGGAGCGCGUGAAAACGCAGGUAGGUCGCAGAACCUUGCCAACUAACACGAAAGUG [Ex Arginine A K4 19]	268	246	305	387	287
AAGCCGGUUGCGGCCGCCACUUUUGCGGACCCGGUGCAGUGAUGUUGCGCAUCGCGGGUUGCUUAAAGGACCGGGCACCUCUAAC [theeternabot_sameState_KL_Trp_B_7]	418	359	401	363	327
AAGCUCAGCGUGACUCGAUAAGAGUCACAACGAGGACCGGUACGGCCGCCACUCGAAAUAAGAGAGUGAUGUUCUCGCUGAGCAA [#SwitchBubble 6 #StaticStem #K4Late]	631	344	620	824	548
AAGGCCACGAGAAGGAGCGUGCUAUGGAGUGAUGUUCCAAUGUAGACCUAAGGUCUACAAGCACAGGUAGGUCGCUCGUGGUCAA [Omei KL Arginine B SS A v2]	102	96.9	109	100	103
AAGGCCGCGCGGUGAUGUUUCAUCGCCGCCCGAGGACCGGUACGGCCGCCACUCGGAUAUAUCGCAGUGAUGUUGCUCUAUAUCA [Exclusion - Tryptophan A]	160	151	155	167	203
AAGGUCACUGCUACAGUGAUGUUGUGGGAGCAGGAUAUGCUGAAAAGCAGAAGGGCUCGCUCCAGGUGACCGAAUGAAACAUUCA [whbob_SS_FMNA__2th176]	1140	718	1290	792	1110
AAUAAAAUCACGGCCGCCACUGAAUUAUUGGUAAGUAGUGAUGUUACUUUACAUAUCUAAUUUAACAGGACCGGGUGAAUAUUUA [#17 K4 Tryptophan B Exclusion]	130	93.4	113	96.6	131
AAUAAUAAUAAAUAUAGAUUGAUGAGGAAACGAGGACCGGUACGGCCGCCACUCGAGUGAUGUUCGAGAACCUCAUCAAUCAUAA [AK4.7 Exc Tryptophan A]	171	132	166	154	382
AAUACCUGAGUGAUGUUCAGGGAAUCAGAAGGAGCGUCAAUUAUGACAGGUAGGUCGCUGAAGACAUGUGUGUAUACACAUGUCC [#04 K4 Arginine A Same State]	259	198	234	275	200

Sequence	apparent KD of K4 kissing-loop reporter (input ligand: FMN 200 uM) [nM]	apparent KD of K4 kissing-loop reporter (input ligand: arginine 13.2 mM) [nM]	apparent KD of K4 kissing-loop reporter (input ligand: none) [nM]	apparent KD of K4 kissing-loop reporter [1] [nM]	apparent KD of K4 kissing-loop reporter [2] [nM]
AAUAGGGAUAGUGAUGUUAUCCCUUAUGAUACCAGUGCCAUCGGACACCCUUGGCAGCAUACGGGCAGUGAUGUUGUCCUUGGUG [Exclusion Theophylline A GF 16]	106	94	101	94.8	93.8
AAUCAAUACAGAAGGAGCGUGACAUUUGCUAUUGUAAUUUUAGCUAGUGAUGUUAGCAUUUCACAGGUAGGUCGCUGUACAUUUA [JR_SSArginiB_Sub010]	275	324	354	415	259
AAUGAGGACACUUGCAACAGUCCUCGAAUACGAGGACCGGUACGGCCGCCACUCGAUAACUUGCAGUGAUGUUGCAAGUAAGAAU [(T)''-(K)'-(T)'-(T1)-(T2)-(K1)-(K2)_Design2]	227	201	207	258	311
AAUUCUCUUUUUGAUACCAGCGAAUCUGAGUGAUGUUCUAAGCCAUACAAUUGAGUAAAUCGCCCUUGGCAGCAAUUCGUGGGUG [theeternabot_exclusion_KL_Theo_B_20]	898	681	724	921	567
AAUUUAUGAUCUGAUACCAGACUUUAUCUUGUUUAUAAGUCAAGUGAUGUUUGACUAUUAGUCCCUUGGCAGCAGUAUUGUUUAA [#17 K4 Theophylline B Same State]	243	268	290	208	239
ACCAUCAAAGAUGGCCAGGACUCAACUGAUACCAGAGUGGAGACACUCCCUUGGCAGCAGGUGAGUGAUGUUCACGAGUCCUGGA [Omel KL Theo A SS B v9]	1000	801	1140	599	740
ACCCGGGCCCGAAAGGGCCCGGGAAGAGAUACCAGCAGCGAAAGCUGCCCUUGGCAGCUCACUUAGUGAUGUUGAGUAUAGGGUA [#22 K4 Theophylline A Same State]	1100	463	279	185	361
ACCUAGUAGACAGGAUAUCACCAUGACAGUGAUGUUGUCAUGCUCGAUUUGAGGAAACUCAGAUCGUGAGAAGGGUCUAACGACU [FMN B SS t7]	136	149	170	146	158
ACGCGCGCGAGUGAUGUUCGGAGCGGCUGGCAGGAUAUGUAGCAAUGCAGAAGGGUCGUGGCGCUCCCUCCUGAAGGAGGGAGCG [#2 Exclusion - FMN A Attempt #25 (HarryS)]	198	307	351	432	347
ACGCGCGCGAGUGAUGUUCGGAGCGGCUGGCAGGAUAUGUAGCAAUGCAGAAGGGUCGUGGCUGCUGGUAGGAAACUACUGGCAG [#2 Exclusion - FMN A Attempt #4 (HarryS)]	252	316	424	358	441
ACGCUGGUGAAUAACACUAGCGAAAAUUCGCGAGGACCGGUACGGCCGCCACUCGCUAACUGCGAGUGAUGUUCGAUAAUAAAAU [Mat - Mod of OpenEnded 3 - D8]	233	67.5	165	169	112
ACGUGCACCAGUGAUGUUGGAAAAUAUGAAGGAGCGGGAGAAAACCCAGGUAGGUCGCAUAAUAGCACGAGCCACGAAAGUGGCA	191	81.4	122	196	107
ACUGAGCAUGCGGCCGCCACUUCAGAACGUCGCCCAGAGGGCGACGCCUCCGCAGUGAUGUUGUGGAGGACCGGGCAUGUUCAGA [Omei KL Tryp B Exc A v5]	419	360	355	451	420
AGACCUCAGUGAUGUUGAGGUAACACUGAUACCAGCGACUUGAUUCGCCCUUGGCAGCAGUCCACCGAGGUAUCUGAUCAGGUCA [#25 K4 Theophylline A Exclusion]	159	158	137	168	140
AGACUACCACACUGUCAAUAGACAGUGAACUAGGAUAUGCUGAUAAGCAGAAGGAGUGAUGUUCCUCGGUAGUCAAUAAAAUAAU [FmnAX 13 C67]	419	255	303	346	235
